Numbering of substitutions follows the chain as printed. Each block holds one binder with its values, some of them ahead of it.
Tests used:
[1] = target: T1, mouse VISTA recombinant protein (Sino Biological Inc., Cat. #51550-M08H), biotinylated (mouse, UniProt Q9D659 33-191, biotinylated using EZ-LINK NHS-PEG4 biotin); assay: BLI (Octet QKe), biotinylated VISTA on streptavidin sensors, antibody at 5 µg/ml
T1 construct: Bought protein; also called mouse VISTA protein
T1 sequence (looked up): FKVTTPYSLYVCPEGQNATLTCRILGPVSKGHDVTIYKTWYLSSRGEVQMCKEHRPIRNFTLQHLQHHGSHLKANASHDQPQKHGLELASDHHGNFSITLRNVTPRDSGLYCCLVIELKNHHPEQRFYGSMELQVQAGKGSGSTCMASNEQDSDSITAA
Method: (§1) Method: The binding affinity of anti-VISTA antibodies was determined with bio-layer interferometry using Octet QKe (ForteBio). Human VISTA recombinant protein (Sino Biological Inc., Cat. #13482-H08H) mouse VISTA (Sino Biological Inc., Cat. #51550-M08H) were biotinylated using EZ-LINK NHS-PEG4 biotin (Thermo Fisher Scientific). Streptavidin biosensors (ForteBio) were used to load biotinylated VISTA protein (300 seconds at 5 μg/ml). The baseline measurement was stabilized for 60 seconds in 1× kinetics buffer (ForteBio) before anti-VISTA antibodies at 5 μg/ml were allowed to associate for 300 seconds with captured protein. Then the sensors were dissociated in 1× kinetics buffer for 600 seconds. Data analysis was performed on ForteBio Data Analysis HT 11.1 software.

[2] = target: T1, mouse VISTA recombinant protein (Sino …); assay: BLI (Octet QKe), biotinylated VISTA on streptavidin sensors; the parental antibody is the affinity comparator
Method: as §1

[3] = target: T2, mouse VISTA expressed on Jurkat cells (mouse, UniProt Q9D659 33-308); assay: flow cytometry on Jurkat cells expressing mouse VISTA (FIG. 3A-D); the parental antibody is the binding comparator
T2 construct: whole, on cells; also called Jurkat-mouse VISTA; mouse VISTA expressing cells
T2 sequence (looked up): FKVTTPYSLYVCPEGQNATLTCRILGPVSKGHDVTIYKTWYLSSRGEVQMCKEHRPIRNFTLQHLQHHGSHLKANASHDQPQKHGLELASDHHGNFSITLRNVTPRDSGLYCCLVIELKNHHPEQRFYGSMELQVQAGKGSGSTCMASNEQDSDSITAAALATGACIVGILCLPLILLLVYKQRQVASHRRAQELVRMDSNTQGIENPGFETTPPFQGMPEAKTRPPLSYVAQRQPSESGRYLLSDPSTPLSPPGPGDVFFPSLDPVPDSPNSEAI

[4] = target: T3, Human VISTA recombinant protein (Sino Biological Inc., Cat. #13482-H08H), biotinylated (human, UniProt Q9H7M9 33-194, biotinylated using EZ-LINK NHS-PEG4 biotin); assay: BLI (Octet QKe), biotinylated VISTA on streptavidin sensors, antibody at 5 µg/ml
T3 construct: Bought protein
T3 sequence: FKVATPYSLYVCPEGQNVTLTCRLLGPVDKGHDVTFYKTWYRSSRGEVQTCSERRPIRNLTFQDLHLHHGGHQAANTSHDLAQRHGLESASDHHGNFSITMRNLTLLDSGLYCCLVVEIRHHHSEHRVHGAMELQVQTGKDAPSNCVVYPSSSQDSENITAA
Method: as §1

[5] = target: T2, mouse VISTA expressed on Jurkat cells; assay: flow cytometry on Jurkat cells expressing mouse VISTA (FIG. 3E)

binding result [5]: binds
B6: 9F9 VH15/VL15 hIgG2 (antibody, V domains shown)
VH: QVQLVQSGAEVMKPGASVKLSCKASGYTFTGYWMQWVKQRPGQGLEWIGAIYPGDGDTRYSQKFKGKATMTADTSISTAYMELSRLRSDDSAVYYCARRDYGAWFAYWGAGTTVTVSS
VL: DIVMTQSPSSLSASVGERVTITCKASQDINSYLSWFQQKPGKAPKTLIYRANRLVDGVPSRFSGSGSGTDFTFTISSVQPEDLAIYYCLQYDEFPYTFGGGTKLEIK
notes: also called 9E9 VH15/VL15 using the IgG2 constant region

binding result [1]: binds
B7: 9F9 humanized anti-VISTA antibody VH15/VL15 (antibody, V domains shown)
VH: B6 VH
VL: B6 VL
notes: also called 9E9 anti-VISTA VH15/VL15

The remaining lines, values behind:

B1: 9F9 humanized anti-VISTA antibody VH7/VL7 (antibody, V domains shown)
VH: QVQFVQSGAEVKKPGASVKVSCKASGYTFTGYWMQWVKQAPGQRLEWIGAIYPGDGDTRYSQKFKGKVTLTADTSASTAYMELSSLRSEDTAVYYCARRDYGAWFAYWGQGTLVTVSS
VL: DIKVTQSPSSLSASVGDRVTITCKASQDINSYLSWYQQKPGKAPKTLIYRANRLVDGVPSRFSGSGSGQEYTLTISSLQPEDFATYYCLQYDEFPYTFGQGTKVEIK
notes: also called 9E9 anti-VISTA VH7/VL7
binding result [1]: binds

B2: 9F9 humanized anti-VISTA antibody VH9/VL9 (antibody, V domains shown)
VH: B1 VH with A16S, T30S, R44G, T74E, A76T
VL: B1 VL with E70D, L73F, F83I
notes: also called 9E9 anti-VISTA VH9/VL9
binding result [1]: binds

B3: 9F9 parental anti-VISTA antibody (VH0/VL0) (antibody, V domains shown)
VH: QVQFQQSGAELARPGASVKLSCKASGYTFTGYWMQWVKQRPGQGLEWIGAIYPGDGDTRYSQKFKGKVTLTADKSSSTAYMQLSSLASEDSAVYYCARRDYGAWFAYWGQGTLVTVSA
VL: DIKVTQSPSSMYASLGERVTITCKASQDINSYLSWFQQKPGKSPKTLIYRANRLVDGVPSRFSGSGSGQDYSLTISSLDYEDMGIYYCLQYDEFPYTFGGGTKLEIK
notes: also called 9E9 parental antibody; parental 9F9 (VH0/VL0)
binding result [2]: binds
binding result [3]: binds
binding result [4]: binds

B4: 9F9 humanized anti-VISTA antibody VH14/VL15 (antibody, V domains shown)
VH: B6 VH with L20I, K38R, S91T
VL: B6 VL
notes: also called 9E9 anti-VISTA VH14/VL15
binding result [1]: binds

B5: 9F9 VH15/VL15 hIgG1-LALA (antibody, V domains shown)
VH: B6 VH
VL: B6 VL
notes: also called 9E9 VH15/VL15 using the humanized hIgG1-LALA constant region
binding result [5]: binds

From patent US20260078185A1 (DYNAMICURE BIOTECHNOLOGY, published 2026)
